Values quoted from earlier work in paper PMC4388261.

Target: Glu35 (UniProt position 53, CAAKFESNFNT)
Conditions: not stated (wild-type HEWL; the literature range pools several studies)

Hen egg-white lysozyme (HEWL, lysozyme C) (Gallus gallus)
pKa: 6.0–6.8
